From paper PMC9668993, “CBP-HSF2 structural and functional interplay in Rubinstein-Taybi neurodevelopmental disorder” (Nature Communications, 2022)

Target: T1, CBP-Full-HAT, full-catalytic domain of murine CBP (1096-1700), 6 His-tagged (murine, UniProt P45481 1096-1700)
T1 construct: also called CBP core catalytic domain; source: recombinant, purified
T1 sequence (looked up): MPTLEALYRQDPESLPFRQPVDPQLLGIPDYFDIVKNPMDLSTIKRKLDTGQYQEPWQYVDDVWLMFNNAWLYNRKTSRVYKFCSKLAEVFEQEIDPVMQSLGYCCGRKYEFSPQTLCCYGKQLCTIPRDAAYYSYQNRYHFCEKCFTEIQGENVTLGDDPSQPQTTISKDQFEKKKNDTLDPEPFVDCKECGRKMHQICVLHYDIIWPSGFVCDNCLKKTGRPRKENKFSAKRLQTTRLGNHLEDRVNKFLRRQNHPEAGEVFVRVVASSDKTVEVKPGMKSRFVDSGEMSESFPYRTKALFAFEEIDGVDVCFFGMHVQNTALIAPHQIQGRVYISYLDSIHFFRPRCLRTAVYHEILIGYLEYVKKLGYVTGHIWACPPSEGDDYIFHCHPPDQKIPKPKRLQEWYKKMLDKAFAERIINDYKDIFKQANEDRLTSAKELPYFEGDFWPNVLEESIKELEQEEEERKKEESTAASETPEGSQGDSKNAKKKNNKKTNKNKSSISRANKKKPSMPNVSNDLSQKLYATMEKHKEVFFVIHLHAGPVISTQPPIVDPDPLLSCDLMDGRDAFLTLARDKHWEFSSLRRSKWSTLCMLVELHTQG
Test: BLI; Octet Red; biotinylated recombinant HSF2 immobilised at 100 nM on streptavidin biosensors in PBS; analytes diluted in PBS at 100 nM, association 600 s; Kd with a 1:1 stoichiometry model, global fit with Rmax unlinked by sensor
Conditions: both partners purified

Kd: 1 nM
B1: biotinylated recombinant full-length HSF2 (recHSF2) (natural protein, UniProt Q03933 1-536, looked up)
chain: MKQSSNVPAFLSKLWTLVEETHTNEFITWSQNGQSFLVLDEQRFAKEILPKYFKHNNMASFVRQLNMYGFRKVVHIDSGIVKQERDGPVEFQHPYFKQGQDDLLENIKRKVSSSKPEENKIRQEDLTKIISSAQKVQIKQETIESRLSELKSENESLWKEVSELRAKHAQQQQVIRKIVQFIVTLVQNNQLVSLKRKRPLLLNTNGAQKKNLFQHIVKEPTDNHHHKVPHSRTEGLKPRERISDDIIIYDVTDDNADEENIPVIPETNEDVISDPSNCSQYPDIVIVEDDNEDEYAPVIQSGEQNEPARESLSSGSDGSSPLMSSAVQLNGSSSLTSEDPVTMMDSILNDNINLLGKVELLDYLDSIDCSLEDFQAMLSGRQFSIDPDLLVDLFTSSVQMNPTDYINNTKSENKGLETTKNNVVQPVSEEGRKSKSKPDKQLIQYTAFPLLAFLDGNPASSVEQASTTASSEVLSSVDKPIEVDELLDSSLDPEPTQSKLVRLEPLTEAEASEATLFYLCELAPAPLDSDMPLLDS
modifications: biotinylated with EZ-Link NHS-PEG4-Biotin at a molar ratio biotin/protein (3:1)
notes: heat-shock factor 2, recombinant full-length protein, catalogue TP310751; also called recombinant HSF2; source: bought: Origen (TP310751)
